Entries after “also recorded” stand apart in the source; their conditions may differ.
B1: Bla g 2: German Cockroach allergen Bla g 2 (protein, listed as Blattella germanica)
chain: MIGLKLVTVLFAVATITHAAELQRVPLYKLVHVFINTQYAGITKIGNQNFLTVFDSTSCNVVVASQECVGGACVCPNLQKYEKLKPKYISDGNVQVKFFDTGSAVGRGIEDSLTISNLTTSQQDIVLADELSQEVCILSADVVVGIAAPGCPNALKGKTVLENFVEENLIAPVFSIHHARFQDGEHFGEIIFGGSDWKYVDGEFTYVPLVGDDSWKFRLDGVKIGDTTVAPAGTQAIIDTSKAIIVGPKAYVNPINEAIGCVVEKTTTRRICKLDCSKIPSLPDVTFVINGRNFNISSQYYIQQNGNLCYSGFQPCGHSDHFFIGDFFVDHYYSEFNWENKTMGFGRSVESV
B2: Bla g 1: German Cockroach (Blattella germanica) allergen Bla g 1 (protein, listed as Blattella germanica)
chain: NAIEFLNNIHDLLGIPHIPVTARKHHRRGVGITGLIDDIIAILPVDDLYALFQEKLETSPEFKALYDAIRSPEFQSIVGTLEAMPEYQNLIQKLKDKGVDVDHIIELIHQIFNIVRDTRGLPEDLQDFLALIPTDQVLAIAADYLANDAEVKAAVEYLKSDEFETIVVTVDSLPEFKNFLNFLQTNGLNAIEFLNNIHDLLGIPHIPVTGRKHLRRGVGITGLIDDIIAILPVDDLYALFQEKLETSPEFKALYDAIRSPEFQSIVETLKAMPEYQSLIQKLKDKGVDVDHIIELIHQIFNIVRDTRGLPEDLQDFLALIPIDQILAIAADYLANDAEVQAAVEYLKSDEFETIVVTVDSLPEFKNFLNFLQTNGLNAIEFINNIHDLLGIPHIPATGRKHVRRGVGINGLIDDVIAILPVDELYALFQEKLESSPEFKALYDAIRSPEFQSIVQTLKAMPEYQDLIQRLKDKGVDVDHFIELIKKLFGLSH
B3: Bla g 4: German Cockroach allergen Bla g 4 (protein, listed as Blattella germanica)
chain: AVLALCATDTLANEDCFRHESLVPNLDYERFRGSWIIAAGTSEALTQYKCWIDRFSYDDALVSKYTDSQGKNRTTIRGRTKFEGNKFTIDYNDKGKAFSAPYSVLATDYENYAIVEGCPAAANGHVIYVQIRFSVRRFHPKLGDKEMIQHYTLDQVNQHKKAIEEDLKHFNLKYEDLHSTCH
B4: Bla g 7: German Cockroach allergen Bla g 7 (protein, listed as Blattella germanica)
chain: MDAIKKKMQAMKLEKDNAMDRALLCEQQARDANIRAEKAEEEARSLQKKIQQIENDLDQTMEQLMQVNAKLDEKDKALQNAESEVAALNRRIQLLEEDLERSEERLATATAKLAEASQAADESERARKILESKGLADEERMDALENQLKEARFMAEEADKKYDEVARKLAMVEADLERAEERAETGESKIVELEEELRVVGNNLKSLEVSEEKANLREEEYKQQIKTLNTRLKEAEARAEFAERSVQKLQKEVDRLEDELVHEKEKYKYICDDLDMTFTELIGN
B5: Bla g 5: German Cockroach allergen Bla g 5 (protein, listed as Blattella germanica)
chain: MAPSYKLTYCPVKALGEPIRFLLSYGEKDFEDYRFQEGDWPNLKPSMPFGKTPVLEIDGKQTHQSVAISRYLGKQFGLSGKDDWENLEIDMIVDTISDFRAAIANYHYDADENSKQKKWDPLKKETIPYYTKKFDEVVKANGGYLAAGKLTWADFYFVAILDYLNHMAKEDLVANQPNLKALREKVLGLPAIKAWVAKRPPTDL
B6: Bla g 6: German Cockroach allergen Bla g 6 (protein, listed as Blattella germanica)
chain: MADEQLQLPPEQISVLRKAFDAFDREKSGSISTNMVEEILRLMGQPFNRRTLEELIDEVDADKSGRLEFDEFVTLAAKFIIEEDSEAMEKELREAFRLYDKEGNGYIPTSCLREILRELDEQLTSDELDMMIEEIDADGSGTVDFDEFMEMMTG

Tested on: not listed separately
Assay: Correlation between IgE and T cell responses per donor
Design: species or system human
Conditions: not given
Source text: The correlation between T cell responses and IgE responses was further investigated by examining for each donor which allergens were recognized by IgE and T cell responses (Table V and Table IX).
In the case of B1, the “Donors with Responses to: IgE Only” value is reported as 7, the “Donors with Responses to: Neither” value is reported as 24 and the “Donors with Responses to: T Cell Only” value is reported as 2.
For B2, the “Donors with Responses to: IgE Only” value was 3, the “Donors with Responses to: Neither” value was 27 and the “Donors with Responses to: T Cell Only” value was 3.
With B3 the “Donors with Responses to: IgE Only” value was 4, the “Donors with Responses to: Neither” value was 30 and the “Donors with Responses to: T Cell Only” value was 0.
For B4, the “Donors with Responses to: IgE Only” value was 4, the “Donors with Responses to: Neither” value was 30 and the “Donors with Responses to: T Cell Only” value was 0.
In the case of B5, the “Donors with Responses to: IgE Only” value is reported as 8, the “Donors with Responses to: Neither” value is reported as 15 and the “Donors with Responses to: T Cell Only” value is reported as 4.

Same assay, conditions: IgE and T cell
For B1, the “Donors with Responses to: Both” value was 1.
For B2, the “Donors with Responses to: Both” value was 1.
With B3 the “Donors with Responses to: Both” value was 0.
In the case of B4, the “Donors with Responses to: Both” value is reported as 0.
In the case of B5, the “Donors with Responses to: Both” value is reported as 7.

Tested on: Bla g-specific T cells (PBMC)
Assay: ELISPOT assays: IL-5, IFN-γ and IL-10 production by in vitro expanded PBMC of Cockroach-allergic donors
Format: cell-based, human
Conditions: not given
Method: In vitro expansion of Bla g-specific T cells: PBMC were cultured in RPMI 1640 (V Scientific, Tarzana, Calif.) supplemented with 5% human serum (Cellgro, Herndon, Va.) at a density of 2×10^6 cells/ml in 24-well plates (BD Biosciences, San Jose, Calif.) and stimulated with 25 μg/ml German Cockroach (Blatella germanica; Bla g) extract (Greer, Lenoir, N.C.), or individual peptides. […] On day 14, cells were harvested and screened for reactivity against Bla g-specific peptide pools or individual peptides. ELISPOT assays: The production of IL-5, IFN-γ, and IL-10 was analyzed in ELISPOT assays. […] Cells were then incubated at a density of 1×10^5/well either with peptide pools or individual peptides (10 μg/ml), German Cockroach extract (25 μg/ml), PHA (10 μg/ml), or medium (containing 1% DMSO corresponding to the percentage of DMSO in the pools/peptides) as a control. […] Louis, Mo.). Spots were counted by computer-assisted image analysis (Zeiss, KS-ELISPOT reader, Munich, Germany). Each assay was performed in triplicate. The level of statistical significance was determined with a Student's t-test using the mean of triplicate values of the response against relevant pools or individual peptides versus the response against the DMSO control.
For B1, the “T cell response pattern (IL-5 / IFN-γ), in words” value was “Little or no response; also recorded: responses were detected only for IFN-γ, and not for IL-5”.
In the case of B3, the “T cell response pattern (IL-5 / IFN-γ), in words” value is reported as “Little or no response”.
For B6, the “T cell response pattern (IL-5 / IFN-γ), in words” value was “clear preponderance of IL-5”.
With B4 the “T cell response pattern (IL-5 / IFN-γ), in words” value was “Little or no response”.
In the case of B5, the “T cell response pattern (IL-5 / IFN-γ), in words” value is reported as “both IL-5 and IFN-γ responses were detected”.

Same assay, conditions: 34 donors
For B1, the “Donors responding (%), T cell” value was 9% and the “Donors responding, T cell (number)” value was 3.
In the case of B2, the “Donors responding (%), T cell” value is reported as 12% and the “Donors responding, T cell (number)” value is reported as 4.
For B3, the “Donors responding (%), T cell” value was 0 (0) % and the “Donors responding, T cell (number)” value was 0 (0).
For B6, the “Donors responding (%), T cell” value was 17% and the “Donors responding, T cell (number)” value was 5.
For B5, the “Donors responding (%), T cell” value was 32% and the “Donors responding, T cell (number)” value was 11.

Same assay, conditions: all peptides of the protein
In the case of B1, the “IFN-γ SFC” value is reported as 1553 SFC and the “IL-5 SFC” value is reported as 0 SFC.
In the case of B2, the “IFN-γ SFC” value is reported as 890 SFC and the “IL-5 SFC” value is reported as 1083 SFC.
In the case of B3, the “IFN-γ SFC” value is reported as 0 SFC and the “IL-5 SFC” value is reported as 0 SFC.
With B6 the “IFN-γ SFC” value was 310 SFC and the “IL-5 SFC” value was 4045 SFC.
For B4, the “IFN-γ SFC” value was 0 SFC and the “IL-5 SFC” value was 0 SFC.
For B5, the “IFN-γ SFC” value was 6875 SFC and the “IL-5 SFC” value was 9637 SFC.

Same assay, conditions: all peptides of the protein, IL-5 plus IFN-γ
With B1 the “Total SFC” value was 1553 SFC.
For B2, the “Total SFC” value was 1973 SFC.
For B3, the “Total SFC” value was 0 SFC.
In the case of B6, the “Total SFC” value is reported as 4355 SFC.
In the case of B4, the “Total SFC” value is reported as 0 SFC.
With B5 the “Total SFC” value was 16512 SFC.

Same assay, conditions: discussion, PBMC responses from 30 allergic donors
For B6, the “share of the response accounted for by the allergen” value was 20%.
For B5, the “share of the response accounted for by the allergen” value was 65%.

Same assay, conditions: of the 11 donors responding
With B5 the “donors with a strong Th1 bias (ratio >5-fold)” value was 3, the “donors with a strong Th2 bias” value was 3 and the “donors with balanced responses” value was 5.

Same assay, conditions: per protein
With B1 the “Ratio IL-5/IFNγ” value was <0.01.
In the case of B2, the “Ratio IL-5/IFNγ” value is reported as 1.22.
For B6, the “Ratio IL-5/IFNγ” value was 13.0.
With B5 the “Ratio IL-5/IFNγ” value was 1.40.

Same assay, conditions: share of total Bla g response per protein
In the case of B1, the “% Total Response” value is reported as 6.4%.
With B2 the “% Total Response” value was 8.1%.
For B3, the “% Total Response” value was 0.0%.
With B6 the “% Total Response” value was 17.9%.
For B4, the “% Total Response” value was 0.0%.
In the case of B5, the “% Total Response” value is reported as 67.7%.

Tested on: specific IgE antibody in donor sera
Assay: Serological determinations: specific IgE antibody binding by (streptavidin-)ImmunoCAP
Design: species or system human
Conditions: 34 donors
Method: Serological determinations: Sera were analyzed for specific IgE antibody binding to rBla g 1, rBla g 2, rBla g 4, rBla g 5 and rPer a 7 using allergen-coated streptavidin-ImmunoCAPs. Recombinant allergens were expressed in Pichia pastoris (rBla g 1, rBla g 2, rBla g 4, rPer a 7) or Escherichia coli (rBla g 5) and purified by affinity chromatography. Purified allergens were biotinylated and bound to streptavidin-coated ImmunoCAPs (Phadia US Inc., Portage, Mich.) at an optimized amount of 1 μg per ImmunoCAP. Specific IgE antibody binding to extracts from Blattella germanica (i6), Dermatophagoides pteronyssinus (d1) and D. farinae (d2), and total IgE antibody were also measured by ImmunoCAP analysis.
With B1 the “Donors responding (%), IgE” value was 24% and the “Donors responding, IgE (number)” value was 8.
For B2, the “Donors responding (%), IgE” value was 12% and the “Donors responding, IgE (number)” value was 4.
For B3, the “Donors responding (%), IgE” value was 12% and the “Donors responding, IgE (number)” value was 4.
For B5, the “Donors responding (%), IgE” value was 44% and the “Donors responding, IgE (number)” value was 15.

From patent US11421006B2, “T cell epitopes from Cockroach and methods of making and using same” (LA JOLLA INSTITUTE FOR ALLERGY AND IMMUNOLOGY, priority 2012, dated 2022)
